Values joined by “and” are separate entries in the source; they are usually repeats but may differ in a detail not shown here. Equal entries are not always repeated.
Columns and labels:
Type in all cases: in vivo
NASH Rhesus monkeys [1] = assay: NASH Rhesus monkeys, body weight, lipids, glucose, food consumption, tolerability
Description: The in vivo pharmacological study of YN-011 was conducted in NASH Rhesus monkeys. The evaluated clinical parameters included liver lipid content assessed by MRI-PDFF %, NAFLD Activity Score (NAS), liver fibrosis stage assessed by liver histology, body weight, body mass index (BMI), blood lipid profile, fructose metabolism, other biochemical parameters, and food consumption.
The selected Rhesus monkeys were 11-23 years old, which corresponds to 30-70 years in humans. All Rhesus monkeys were males, with weights ranging from 13.63 to 22.85 kg. They had abnormal lipid metabolism for more than 2 years, MRI-PDFF % ranging from 7.8% to 11.9%, NAS scores of 3 or higher, and fibrosis scores of 0-1c within 6 months. These animals clinically met the definition of NASH.
(§1) Fifteen Rhesus monkeys were divided into 3 groups, with 5 monkeys in each group. They received subcutaneous injections of 0 (solvent control, placebo control group), 0.050, or 0.150 mg/kg of YN-011 once a week for 13 weeks (QW). The 0.150 mg/kg YN-011 group received adaptive dosing (0.1 mg/kg for the first dose, followed by 0.150 mg/kg for the remaining 12 doses).

NASH Rhesus monkeys [2] = assay: NASH Rhesus monkeys, MRI-PDFF quantitative analysis of hepatic steatosis; conditions: for percentage reduction of MRI-PDFF liver fat compared to baseline: end of the treatment; for Change rate (%) of liver lipid content: (current - baseline)/baseline
From the text: The GE 3.0T MRI scanner (750W3T MRI, GE Healthcare) was used for liver imaging in this study. The IDEAL-IQ sequence was employed, which combines the IDEAL (Iterative Decomposition of water and fat with Echo Asymmetry and Least-squares estimation) technique with fast three-dimensional multi-echo imaging. This technique includes multi-echo water-fat separation, region-growing algorithm, as well as various imaging methods for tissue fat quantification and R2* relaxation rate. Six contrast images, including in-phase, opposed-phase, water-only, fat-only, fat fraction maps, and R2* maps, were acquired through a single breath-hold scan by collecting signals from six different echo time (TE) values. The images were reconstructed using computer algorithms to obtain the aforementioned contrast images. The IDEAL-IQ hybrid water-fat separation algorithm consisted of two steps. The first step involved complex domain reconstruction to obtain water and fat images, as well as the T2* map. The second step generated an additional set of estimated water and fat images. These two sets of images were then combined using a hybrid algorithm to generate the final water and fat images.
Prior to conducting the experiment, a Phantom test was performed. Five standard fat solutions with known fat content were prepared by modifying the body phantom preparation method used by Clare P. et al.. Pure water was used as 0% fat. Sodium dodecyl sulfate (60 mmol) was dissolved in 1 L of deionized water, heated to 50° C., and then 40 g of gelatin was added and mixed thoroughly. […] of the aforementioned solution, respectively, to prepare solutions with fat contents of 0%, 2.5%, 5%, 10%, 20%, and 100%. These solutions were filled into six 100 ml EP tubes for subsequent scanning procedures.
Phantom validation experiments were performed before each scan. All animals underwent a baseline scan and one additional scan after the completion of the drug administration, totaling two scans. The anesthesia procedure was as follows: intramuscular injection of 10 mg/kg ketamine hydrochloride, endotracheal intubation, and maintenance of anesthesia with isoflurane and oxygen using a ventilator. During the scanning process, veterinary monitoring of electrocardiogramad oxygenation, respiratory rate, etc., was performed, and veterinary supervision was provided until the animals fully recovered consciousness and resumed spontaneous respiration.
Image Post-processing and Analysis: The collected and stored Hepatic steatosis MRI images of Rhesus monkeys were analyzed using the 750W 3T MRI workstation. The liver MRI images were selected by choosing the planes with the maximum exposure of the right hepatic lobe area (layers 1-3), avoiding large blood vessels, bile ducts, and gallbladder to prevent volume effects. Regions of interest (ROI) were selected, with each ROI having an area of 90-110 mm^2. Hepatic steatosis was defined as MRI-PDFF % (Magnetic Resonance Imaging Proton Density Fat Fraction)>6% (consistent with clinical standards).
as §1

obese rhesus monkeys = assay: Obese rhesus monkeys, body weight; conditions: for body weight decrease compared to baseline: at D28
From the text: The obese rhesus monkeys used in this study were sourced from Sichuan Primate Biotechnology Co., Ltd. Fifteen male obese rhesus monkeys, aged 8-21 years (equivalent to 30-60 years in humans), with a body weight of 9.25-15.70 kg, fasting plasma glucose (FPG) levels between 5.50-8.58 mmol/L, and HbA1c levels between 4.5-5.0%, were selected. These monkeys were within the first year of disease onset and had not received any medication. Their liver and kidney functions were normal. The animals were stratified based on FPG levels and randomly assigned to different groups. The selected animals underwent an intravenous glucose tolerance test (IVGTT) to measure blood glucose and insulin levels before the administration of the test compounds. The experimental groups included a placebo group and two YN-011 treatment groups: YN-011 50 μg/kg and YN-011 25 μg/kg, with 5 animals in each group. The treatments were administered via subcutaneous injections (SC) once a week for 4 consecutive weeks, specifically on Day 0 (DO), Day 7 (D7), Day 14 (D14), and Day 21 (D21).

B1: YN-011: GLP-1 fusion protein of SEQ ID NO: 7: GLP-1 (A8G, G22E, R36G), linker peptide and IgG2/Fc domain (C222S, A330S, P331S) (protein)
chain: HGEGTFTSDVSSYLEEQAAKEFIAWLVKGGGSSGAPPPSGGGGSERKSCVECPPCPAPPVAGPSVFLFPPKPKDTLMISRTPEVTCVVVDVSHEDPEVQFNWYVDGVEVHNAKTKPREEQFNSTFRVVSVLTVVHQDWLNGKEYKCKVSNKGLPSSIEKTISKTKGQPREPQVYTLPPSREEMTKNQVSLTCLVKGFYPSDIAVEWESNGQPENNYKTTPPMLDSDGSFFLYSKLTVDKSRWQQGNVFSCSVMHEALHNHYTQKSLSLSPG
B1 was tested, and the food consumption (NASH Rhesus monkeys [1]) was “dose-dependent reduction”, the “high-density lipoprotein cholesterol (HDL-c) compared to baseline” value (NASH Rhesus monkeys [1]) was “decreasing trend” and the “plasma fasting plasma glucose (FPG) levels, YN-011 vs placebo” value (NASH Rhesus monkeys [1]) was “no significant differences”. The “reduction of plasma fructosamine (FRA)” value (NASH Rhesus monkeys [1]; 150 μg/kg, after 12 weeks of treatment) was 4.3%, the adverse reactions (NASH Rhesus monkeys [1]; 0.050 or 0.150 mg/kg sc QW, 13 weeks) was “No significant adverse reactions” and the “body weight and BMI compared to baseline” value (NASH Rhesus monkeys [1]; Day 7-Day 84) was “significant decrease”. For the same molecule, the “serum LDL-c, total cholesterol (TC) and total triglycerides (TG)” value (NASH Rhesus monkeys [1]; various time points during treatment) was “significantly reduced”, the “percentage reduction of MRI-PDFF liver fat compared to baseline” value (NASH Rhesus monkeys [2]; 50 μg/kg) was 43.8% and the “Average ROI Baseline (%) (liver lipid content, MRI-PDFF)” value (NASH Rhesus monkeys [2]; 0.05 mg/kg group, 0.05 mg/kg) was 9.0%±0.9% and 9.0 ± 0.9%. For the same molecule, the “Mean ROI at day 80 of dosing (%) (liver lipid content, MRI-PDFF)” value (NASH Rhesus monkeys [2]; 0.05 mg/kg sc QW, 0.05 mg/kg) was 5.0%±0.2% and 5.0 ± 0.2** %, the “Change rate (%) of liver lipid content” value (NASH Rhesus monkeys [2]; 0.05 mg/kg sc QW) was −43.8 ± 7.4 % and the “Average ROI Baseline (%) (liver lipid content, MRI-PDFF)” value (NASH Rhesus monkeys [2]; 0.15 mg/kg group, 0.15 mg/kg) was 9.4%±1.5% and 9.4 ± 1.5%. The “Mean ROI at day 80 of dosing (%) (liver lipid content, MRI-PDFF)” value (NASH Rhesus monkeys [2]; 0.15 mg/kg sc QW, 0.15 mg/kg) was 5.6%±1.5% and 5.6 ± 1.5** %, the “Change rate (%) of liver lipid content” value (NASH Rhesus monkeys [2]; 0.15 mg/kg sc QW) was −39.7 ± 14.2 % and the “percentage reduction of MRI-PDFF liver fat compared to baseline” value (NASH Rhesus monkeys [2]; 150 μg/kg) was 39.7%. The “decrease of liver lipid content compared to the placebo control group” value (NASH Rhesus monkeys [2]; after 13 weeks of weekly treatment) was “approximately 40%”, the “BW” value (obese rhesus monkeys; 25 μg/kg SC once a week, D 1 baseline value (before administration)) was 12.72 kg and the “BW” value (obese rhesus monkeys; 25 μg/kg SC once a week, D 7) was 12.39 kg. The “BW” value (obese rhesus monkeys; 25 μg/kg SC once a week, D 14) was 12.16 kg, the “BW” value (obese rhesus monkeys; 25 μg/kg SC once a week, D 21) was 12.06 kg and the “BW” value (obese rhesus monkeys; 25 μg/kg SC once a week, D 28) was 11.84 kg. For the same molecule, the “BW” value (obese rhesus monkeys; 25 μg/kg SC once a week, D 35) was 12.05 kg, the “BW” value (obese rhesus monkeys; 25 μg/kg SC once a week, D 42) was 12.03 kg and the “BW compared to the placebo group” value (obese rhesus monkeys; 25 μg/kg, D14 and D21 (P<0.05)) was “significantly decreased”. The “body weight decrease compared to baseline” value (obese rhesus monkeys; 25 μg/kg) was 6.17%, the “BW” value (obese rhesus monkeys; 50 μg/kg SC once a week, D 1 baseline value (before administration)) was 10.29 kg and the “BW” value (obese rhesus monkeys; 50 μg/kg SC once a week, D 7) was 9.85 kg. For the same molecule, the “BW” value (obese rhesus monkeys; 50 μg/kg SC once a week, D 14) was 9.64 kg, the “BW” value (obese rhesus monkeys; 50 μg/kg SC once a week, D 21) was 9.63 kg and the “BW” value (obese rhesus monkeys; 50 μg/kg SC once a week, D 28) was 9.52 kg. For the same molecule, the “BW” value (obese rhesus monkeys; 50 μg/kg SC once a week, D 35) was 9.79 kg, the “BW” value (obese rhesus monkeys; 50 μg/kg SC once a week, D 42) was 9.81 kg and the “body weight decrease compared to baseline” value (obese rhesus monkeys; 50 μg/kg) was 7.32%. For the same molecule, the “BW compared to the placebo group” value (obese rhesus monkeys; 50 μg/kg, from D7 to D28 (P<0.05 or P<0.01)) was “significantly or extremely significantly decreased”.

Source: patent publication US20250376498A1, “FUSION PROTEINS COMPRISING AN IMPROVED GLP-1 RECEPTOR AGONIST AND USES THEREOF” (Guangzhou Innogen Pharmaceutical Group Co., Ltd., priority 2022, published 2025)
